Values of other authors, collected in paper PMC12172581.

Biological target: Nterm1 (UniProt position 672, SEVKMDAEFRH)
Assay: potentiometry
Conditions: apo (metal-free) peptide

**Q.** With “Amyloid-beta peptide (Abeta1-40, as tabulated) (Homo sapiens)” as the substance, how does the pKa read?
**A.** The pKa was 8.0.
